{"source": "paper PMC6973309", "molecular_target": "human CX3CR1 (human) (UniProt P49238)", "sequence (P49238 whole entry)": "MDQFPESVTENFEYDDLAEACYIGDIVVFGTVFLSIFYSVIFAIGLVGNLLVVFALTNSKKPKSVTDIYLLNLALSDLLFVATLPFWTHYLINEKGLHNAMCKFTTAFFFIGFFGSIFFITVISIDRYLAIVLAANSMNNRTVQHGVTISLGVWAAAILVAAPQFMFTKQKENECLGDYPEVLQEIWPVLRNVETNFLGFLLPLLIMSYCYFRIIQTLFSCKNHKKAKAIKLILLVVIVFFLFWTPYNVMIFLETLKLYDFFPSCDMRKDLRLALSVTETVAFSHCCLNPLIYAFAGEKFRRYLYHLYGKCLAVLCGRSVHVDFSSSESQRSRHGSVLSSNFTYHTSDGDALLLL"}
{"binder": "mouse fractalkine (ligand) QHLGMTKCEIMCDKMTSRIPVALLIRYQLNQESCGKRAIVLETTQHRRFCADPKEKWVQDAMKHLDHQAAALTKNGGKFEKRVDNVTPGITLATRGLSPSALTKPESATLEDLALELTTISQEARGTMGTSQEPPAAVTGSSLSTSEAQDAGLTAKPQSIGSFEAADISTTVWPSPAVYQSGSSSWAEEKATESPSTTAPSPQVSTTSPSTPEENVGSEGQPPWVQGQDLSPEKSLGSEEINPVHTDNFQERGPGNTVHPSVAPISSEETPSPELVASGSQAPKIEEPIHATADPQKLSVLITPVPDTQAATRRQAVGLLAFLGLLFCLGVAMFAYQSLQGCPRKMAGEMVEGLRYVPRSCGSNSYVLVPV", "values": [{"measurement": "EC50 in the calcium flux assay", "result": 4.8, "unit": "nM"}]}
